First the molecules themselves.
B1: Ch02 (antibody, human IgG1, kappa, V domains shown)
VH: EVKLVESGGGLVQPGGSLRLSCATSGFTFTEYHMSWVRQPPGKALEWLGFIRNRANGYTTEYSASVKGRFTISRDNSQNILYLQMNTLRTEDSATYYCARLTMVVAEFDYWGQGTTLTVSS
VL: DIQMTQSPSSLSASLGGEVTITCKASQDINKYIAWYQHKPGKGPRLLIHYTSTLQPGIPSRFSGSGSGRDYSFSVSNLEPEDIATYYCLQYDNLLTFGAGTKLELKR
notes: also called chimeric antibody Ch02; Ch02 antibody
B2: Hu02 L1H1 (antibody, human IgG1, kappa, V domains shown)
VH: EVQLVESGGGLVQPGGSLRLSCAASGFTFTEYHMSWVRQAPGKGLEWVGFIRNRANGYTTEYAASVKGRFTISRDDSKNSLYLQMNSLKTEDTAVYYCARLTMVVAEFDYWGQGTLVTVSS
VL: DIQMTQSPSSLSASVGDRVTITCQASQDINKYLNWYQHKPGKGPKLLIYYTSTLQTGVPSRFSGSGSGTDFTFTVSNLQPEDIATYYCLQYDNLLTFGQGTKLEIKR
B3: Hu02 L1H5 (antibody, human IgG1, kappa, V domains shown)
VH: B2 VH with G57A, D76N, S87T, K89R
VL: B2 VL
B4: Hu02 L2H3 (antibody, human IgG1, kappa, V domains shown)
VH: B2 VH with N56Q
VL: B2 VL with D1A, D17E, Q24R
B5: Hu02 L2H2 (antibody, human IgG1, kappa, V domains shown)
VH: B2 VH with G57A
VL: B2 VL with D1A, D17E, Q24R
B6: Hu02 L2H1 (antibody, human IgG1, kappa, V domains shown)
VH: B2 VH
VL: B2 VL with D1A, D17E, Q24R
B7: Hu02-L1H2 (antibody, human IgG1, kappa, V domains shown)
VH: B2 VH with G57A
VL: B2 VL
B8: Hu02 L2H6 (antibody, human IgG1, kappa, V domains shown)
VH: B2 VH with N56Q, D76N, S87T, K89R
VL: B2 VL with D1A, D17E, Q24R
B9: Hu02 L1H6 (antibody, human IgG1, kappa, V domains shown)
VH: B2 VH with N56Q, D76N, S87T, K89R
VL: B2 VL
B10: Hu02 L2H5 (antibody, human IgG1, kappa, V domains shown)
VH: B2 VH with G57A, D76N, S87T, K89R
VL: B2 VL with D1A, D17E, Q24R
B11: Hu02 L1H4 (antibody, human IgG1, kappa, V domains shown)
VH: B2 VH with D76N, S87T, K89R
VL: B2 VL
B12: Hu02 L1H3 (antibody, human IgG1, kappa, V domains shown)
VH: B2 VH with N56Q
VL: B2 VL
B13: Mu01 (antibody, V domains shown)
VH: QVQLQQSGAELVRPGSSVKISCKASGYTFSSYWMYWVKQRPGQGLEWIGQIYPGDGDSNYNENFKGKATLTADKSSSTAYMQLSSLTSEDSAVYFCTREGYGNRFAYWGQGTLVTVSA
VL: QIVLTQSPALMSASPGEKVTMTCSASSSVSYMYWYQQKPRSSPKPWINLTSNLASGVPARFSGRGSGTSYSLTISSMEAEDAATYYCQQWSYNPPTFGGGTKLEIK
notes: Murine hybridoma antibody purified from ascites; also called monoclonal antibody Mu01; antibody Mu01
B14: Hu01 L5H2 (antibody, human IgG1, kappa, V domains shown)
VH: QVQLVQSGAEVKRPGSSVKVSCKASGYTFSSYWMYWVRQAPGQGLEWIGQIYPGDGDSNYNENFQGRVTITADKSTSTAYMELSSLTSEDSAVYFCTREGYGNRFAYWGQGTLVTVSS
VL: EIVLTQSPALLSLSPGERATLSCSASSSVSYMYWYQQKPGQAPRLLIQLTSNLASGVPARFSGRGSGTDFTLTISSLEPEDFAVYYCQQWSYNPPTFGGGTKVEIKR
B15: Hu01-L3H1 (antibody, human IgG1, kappa, V domains shown)
VH: B14 VH with T87R, S91T, F95Y
VL: B14 VL with L11M, G40R, Q41S, L45P, L46W, T71S, P79A, V84T
notes: also called Hu01 antibody L3H1
B16: Hu01 L3H2 (antibody, human IgG1, kappa, V domains shown)
VH: B14 VH
VL: B14 VL with L11M, G40R, Q41S, L45P, L46W, T71S, P79A, V84T
B17: Hu01 L5H1 (antibody, human IgG1, kappa, V domains shown)
VH: B14 VH with T87R, S91T, F95Y
VL: B14 VL

Substitutions are numbered along the chain they refer to.

The target of one test is T1, CD142 (Tissue Factor) on BxPC3 human pancreatic cancer cells (human, UniProt P13726 33-295).
T1 construct: whole, on cells; also called TF
The test can be described thus: flow cytometry on BxPC3 cells. The method, then:
Digested cells were centrifuged at 1000 rpm for 5 min and blocked with 10% goat serum (purchased from SenBeiJia Biological Technology Co., Ltd., Product No. SRJ-SE-GO012) for 30 min. Then Hu02 antibodies L1H1, L1H2, L1H3, L1H4, L1H5, L1H6, L2H1, L2H2, L2H3, L2H5, and L2H6 prepared in Example 5 were serially diluted 3 times with an initial concentration of 500 nM. After that, the Hu02 antibody was added to the cells and incubated for 1 h. After washing twice with PBS, FITC-labeled goat anti-human antibody (purchased from Sigma, product No. FS9512-2ML) was added at 1:500 and incubated for 1 h. The results were analyzed by flow cytometry (BD biosciences, product No. BD Accuri C6 Plus) after washing twice with PBS.
With B1, the EC50 was 19.2 nM.
On the same count and under the same terms, in the case of B2 it was 11.6 nM; in that of B3, 9.48 nM; in that of B4, 25.2 nM.
Turning to B5, it took 18.3 nM to reach a half-maximal effect (EC50).
On the same count and under the same terms, in the case of B6 it was 18.1 nM.
Same read-out and setting: in the case of B7 it was 13.2 nM; in that of B8, 6.54 nM; in that of B9, 10.2 nM.
Still for that read-out and setting: the figure for B10 is 8.12 nM; for B11 it is 6.39 nM; for B12 it is 19.7 nM.

Another test deals with T1, CD142 (Tissue Factor) on BxPC3 human …. The test can be described thus: flow cytometry on BxPC3 cells, antibody at 20 ug/mL, FITC goat anti-mouse detection. On the procedure:
Digested cells were centrifuged at 1000 rpm for 5 min and blocked with 10% goat serum (purchased from SenBeiJia Biological Technology Co., Ltd., Product No. SRJ-SE-GOO12) for 30 min. Then Mu01 and Mu02 antibodies respectively prepared in Example 4 and Example 5 were added at a final concentration of 20 μg/mL and incubated for 1 h. After washing with Phosphate buffer (PBS, PH 7.2-7.4) for 2 times, FITC-labeled goat anti-mouse antibody (purchased from Jackson ImmunoResearch, No. 115-545-003) was added at 1:500 and incubated for 1 hour. Analyzed the resulting product by flow cytometry after washing with PBS for 2 times.
With B13, the binding result is listed as “binds”.

A further test shares this target. Nature of the test: flow cytometry on BxPC3 cells, 3-fold dilutions from 500 nM, FITC goat anti-human detection. The method, then:
Digested cells were centrifuged at 1000 rpm for 5 min and blocked with 10% goat serum (purchased from SenBeiJia Biological Technology Co., Ltd., Product No. SRJ-SE-GO012) for 30 min. Then Hu01 antibodies L5H2, L5H1, L3H1, L3H2 prepared in Example 4 were diluted with a 3-fold gradient at the initial concentration of 500 nM. After that, the Hu01 antibody was added to the cells and incubated for 1 h. After washing twice with PBS, FITC-labeled goat anti-human antibody (purchased from Sigma, product No. FS9512-2ML) was added at 1:500 and incubated for 1 h. The results were analyzed by flow cytometry after washing twice with PBS.
For the molecule B14, the binding result is “binds”.
The same measure, in the same setting: in the case of B15 it was “binds”; in that of B16, “binds”.
On the same count and under the same terms, in the case of B17 it was “binds”.

The record behind these values is patent US20260199507A1 (MULTITUDE THERAPEUTICS, published 2026).
